Reference: the supplement of paper PMC7877785
± gives the uncertainty stated by the source.

Test: self-splicing fitness, log relative to wild type (ln ratio); higher = more splicing; Tetrahymena group I intron in knt gene, E. coli kanamycin selection, DiMSum; sequences stand for … in CUCUCU…GGAGGGAAAAGUUAUCAGGCAUGCACCUGGUAGCUAGUCUUUAAACCAAUAGAUUGCAUCGGUUUAAAAGGCAAGACCGUCAAAUUGCGGGAAAGGGGUCAACAGCCGUUCAGUACCAAGUCUCAGGGGAAACUUUGAGAUGGCCUUGCAAAGGGUAUGGUAAUAAGCUGACGGACAUGGUCCUAACCACGCAGCCAAGUCCUAAGUCAACAGAUCUUCUGUUGAUAUGGAUGCAGUUCACAGACUAAAUGUCGGUCGGGGAAGAUGUAUUCUUCUCAUAAGAUAUAGUCGGACCUCUCCUUAAUGGGAGCUAGCGGAUGAAGUGAUGCAACACUGGAGCCGCUGGGAACUAAUUUGUAUGCGAAAGUAUAUUGAUUAGUUUUGGAGUACUCGUGGUCG
Method in brief: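 Library with all eight P1ex-region intron nucleotides randomised, intron inside the knt kanamycin-resistance gene on pET-22b(+), in E. coli BL21(DE3). Cells grew overnight at 37°C or 30°C on LB agar with or without 25 μg/mL kanamycin (plus 100 μg/mL carbenicillin, 50 μM IPTG, 0.2% rhamnose), in six replicate transformations. Pooled colonies were amplicon-sequenced on Illumina HiSeq 2500. DiMSum fitness is the error-weighted combination of wild-type-normalised replicate fold changes, kanamycin versus none.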

Row | Sequence | self-splicing fitness (ln) (30 °C) | self-splicing fitness (ln) (37 °C)
1 | CCUUAGCAAUAUUACGGUAC | -4.06 ± 0.21 | -2.44 ± 0.19
2 | CUGUAGCAAUAUUACGUGAU | -1.56 ± 0.085 | -0.44 ± 0.11
3 | GGUAAGCAAUAUUACGCAAA | -2.37 ± 0.22 | -1.15 ± 0.17
4 | UUCGAGCAAUAUUACGGCGC | -2.99 ± 0.34 | -2.36 ± 0.39
5 | CCAGAGCAAUAUUACGGGUG | -1.52 ± 0.072 | -0.654 ± 0.096
6 | GAAAAGCAAUAUUACGCCGA | -1.01 ± 0.2 | -0.824 ± 0.23
7 | AUGAAGCAAUAUUACGCUGU | -2.02 ± 0.12 | -0.999 ± 0.13
8 | AUGUAGCAAUAUUACGCAAA | -2.34 ± 0.33 | -1.07 ± 0.2
9 | UUAUAGCAAUAUUACGUCCG | -1.64 ± 0.17 | -1 ± 0.17
10 | GAGGAGCAAUAUUACGCCUA | -1.68 ± 0.27 | -0.955 ± 0.16
11 | CGGGAGCAAUAUUACGUUCC | -2.75 ± 0.31 | –
12 | UAACAGCAAUAUUACGCCAC | -3.93 ± 0.35 | -1.54 ± 0.23
13 | AUUCAGCAAUAUUACGAAGU | -1.52 ± 0.11 | -0.236 ± 0.12
14 | AUGGAGCAAUAUUACGAAAC | -2.72 ± 0.4 | –
15 | UAUGAGCAAUAUUACGGCUU | – | -1.62 ± 0.32
16 | CUCUAGCAAUAUUACGGAGU | -3.04 ± 0.29 | -2.61 ± 0.25
17 | AUCCAGCAAUAUUACGCCGU | -0.864 ± 0.096 | -0.133 ± 0.12
18 | GAUUAGCAAUAUUACGGAAC | -2.84 ± 0.36 | -1.7 ± 0.33
19 | UGCAAGCAAUAUUACGGUCG | -0.179 ± 0.073 | 0.595 ± 0.088
20 | UACAAGCAAUAUUACGGAUC | -2.59 ± 0.21 | 0.047 ± 0.15
21 | CCACAGCAAUAUUACGCGUU | -3.65 ± 0.092 | -2.91 ± 0.13
22 | CCGUAGCAAUAUUACGUCGA | -1.93 ± 0.14 | -1.57 ± 0.13
23 | CCGCAGCAAUAUUACGCUAG | -1.53 ± 0.1 | -2.05 ± 0.12
24 | UUUUAGCAAUAUUACGUGAU | -2.76 ± 0.31 | -2.19 ± 0.32
25 | CCCAAGCAAUAUUACGUCCC | -3.35 ± 0.43 | –
26 | CAUAAGCAAUAUUACGAUGA | -2.58 ± 0.14 | -0.929 ± 0.13

Row | Sequence | self-splicing fitness (ln) (30 °C) | self-splicing fitness (ln) (37 °C)
27 | AUGAAGCAAUAUUACGAAAG | -1.77 ± 0.11 | -0.735 ± 0.16
28 | GCACAGCAAUAUUACGCUUA | -0.908 ± 0.065 | -0.871 ± 0.062
29 | UCUAAGCAAUAUUACGAACA | -1.21 ± 0.28 | -1.2 ± 0.2
30 | UUGCAGCAAUAUUACGUAUG | -1.8 ± 0.081 | -1.11 ± 0.12
31 | GGUCAGCAAUAUUACGGGUA | -1.57 ± 0.12 | -0.686 ± 0.1
32 | GUGCAGCAAUAUUACGCCUU | -1.26 ± 0.16 | -0.215 ± 0.14
33 | UGAGAGCAAUAUUACGAGAG | – | -1.16 ± 0.36
34 | CGUGAGCAAUAUUACGACUU | -2.96 ± 0.16 | -1.71 ± 0.19
35 | GCAAAGCAAUAUUACGAGGA | -2.49 ± 0.13 | -1.83 ± 0.14
36 | GGUAAGCAAUAUUACGUUUC | -3.52 ± 0.27 | 0.249 ± 0.15
37 | UAGGAGCAAUAUUACGUCCG | -0.262 ± 0.28 | 1.13 ± 0.28
38 | UCCUAGCAAUAUUACGAUAC | -3.42 ± 0.35 | -2.41 ± 0.44
39 | ACUGAGCAAUAUUACGCCGA | -3.61 ± 0.47 | -1.33 ± 0.23
40 | UGGAAGCAAUAUUACGAUUC | -3.18 ± 0.3 | –
41 | AUGCAGCAAUAUUACGCGAC | -2.18 ± 0.17 | -0.372 ± 0.17
42 | CCUGAGCAAUAUUACGCCAC | -3.2 ± 0.45 | -1.35 ± 0.36
43 | UCACAGCAAUAUUACGCGAC | -3.43 ± 0.21 | -2.51 ± 0.26
44 | UUUCAGCAAUAUUACGGCCG | -0.936 ± 0.17 | -0.968 ± 0.26
45 | ACUCAGCAAUAUUACGACUC | -0.493 ± 0.054 | -0.0647 ± 0.068
46 | UGGCAGCAAUAUUACGCACG | -1.22 ± 0.18 | 0.284 ± 0.19
47 | UCCCAGCAAUAUUACGAUCA | -1.48 ± 0.14 | -0.722 ± 0.14
48 | CAUCAGCAAUAUUACGUAUC | -1.9 ± 0.092 | -1.05 ± 0.098
49 | CACUAGCAAUAUUACGACAC | -2.65 ± 0.22 | -1.69 ± 0.24
50 | AGGUAGCAAUAUUACGAGCG | -0.808 ± 0.014 | -0.435 ± 0.033
51 | CUAUAGCAAUAUUACGAAGA | -3.01 ± 0.25 | –
52 | AUUAAGCAAUAUUACGAAGU | -2.77 ± 0.22 | -0.565 ± 0.21

Row | Sequence | self-splicing fitness (ln) (30 °C) | self-splicing fitness (ln) (37 °C)
53 | CACGAGCAAUAUUACGCAUU | -4.65 ± 0.41 | -1.95 ± 0.3
54 | UAAGAGCAAUAUUACGGAAC | -2.54 ± 0.33 | -3.2 ± 0.46
55 | CAGGAGCAAUAUUACGUAAA | -1.92 ± 0.25 | -1.24 ± 0.31
56 | GAUUAGCAAUAUUACGUGUA | -2.22 ± 0.13 | -1.63 ± 0.14
57 | GCGAAGCAAUAUUACGCUUU | -2.27 ± 0.19 | -2.03 ± 0.4
58 | GGUUAGCAAUAUUACGUCAA | -0.285 ± 0.11 | -0.43 ± 0.13
59 | ACCUAGCAAUAUUACGAUGA | -1.21 ± 0.091 | -0.609 ± 0.1
60 | CGAUAGCAAUAUUACGGUCA | -0.212 ± 0.057 | 0.228 ± 0.065
61 | UGCAAGCAAUAUUACGCAGU | -3.63 ± 0.3 | -3.35 ± 0.39
62 | UGACAGCAAUAUUACGACUA | -0.585 ± 0.087 | 0.416 ± 0.1
63 | ACGUAGCAAUAUUACGAACC | -1.44 ± 0.11 | -0.279 ± 0.15
64 | GCGUAGCAAUAUUACGACUU | -0.421 ± 0.11 | 0.154 ± 0.15
65 | AGGAAGCAAUAUUACGGUGU | -3.33 ± 0.16 | -1.48 ± 0.1
66 | CCGUAGCAAUAUUACGUAGG | -3.19 ± 0.17 | -1.87 ± 0.19
67 | UCGAAGCAAUAUUACGAGGC | – | -2.15 ± 0.49
68 | ACCGAGCAAUAUUACGUGAG | -2.27 ± 0.091 | -0.997 ± 0.091
69 | CGAAAGCAAUAUUACGAUAU | -3.42 ± 0.28 | -1.27 ± 0.2
70 | AACCAGCAAUAUUACGAUGA | -0.753 ± 0.069 | -0.507 ± 0.08
71 | UUCCAGCAAUAUUACGUGGC | -3.11 ± 0.15 | -3.15 ± 0.24
72 | GGGAAGCAAUAUUACGGCGG | -1.2 ± 0.14 | -1.94 ± 0.24
73 | UGCGAGCAAUAUUACGUCGA | -2.22 ± 0.16 | -1.85 ± 0.2
74 | GCAGAGCAAUAUUACGCUGA | -2.11 ± 0.29 | -0.433 ± 0.19
75 | GGCGAGCAAUAUUACGCUAU | -2.55 ± 0.21 | -1.11 ± 0.18
76 | CUUAAGCAAUAUUACGCUCG | -2.09 ± 0.22 | 0.521 ± 0.29
77 | AUCCAGCAAUAUUACGUCUC | -1.84 ± 0.12 | -0.869 ± 0.11
78 | GUCCAGCAAUAUUACGUUAA | -1.64 ± 0.1 | -0.751 ± 0.079
